Patent publication US11866736B2, “Protein prostheses for mitochondrial diseases or conditions” (The General Hospital Corporation, priority 2015, dated 2024)
Substitutions are numbered along the chain they refer to. Names may count otherwise.

Experiments:
primary rat hepatocytes = test: Gluconeogenesis in primary hepatocytes (adenoviral transduction); assay type: cell-based; settings: adenovirus transduction, 5 mM lactate, glucose measured after 6 hours
Excerpt: Two custom adenoviruses (Adenovirus Type 5 (dE1/E3)) were produced by Vector Biolabs. The same LbNOX and mitoLbNOX nucleotide sequences were used as in the lentiviral pLVX-TRE3G constructs. Adenoviral constructs encode for expression of either LbNOX or mitoLbNOX and eGFP, each gene driven by its own CMV promoter. Adenovirus with eGFP driven by the CMV promoter was used as a control (Vector Biolabs, 1060-HT).
Primary hepatocytes were obtained from the MGH Cell Resource Core, where they were freshly isolated by collagenase perfusion of livers from 24-hour fasted Sprague-Dawley rats and plated onto 24-well collagen-coated plates. Twenty four thousand cells were plated and cultured overnight in isolation media (DMEM with high glucose and pyruvate (Life Technologies, 11995)) supplemented with 20 ng/mL epidermal growth factor, 14.3 μg/mL glucagon, insulin, 7.5 μg/mL hydrocortisone, 10% FBS, 1% Penicillin-streptomycin). Cells were then transduced with the indicated adenoviral vector (MOI 20) and were serum starved by incubating in DMEM without additional supplementation overnight. […] Media was sampled 6 hours later and glucose was measured using the AMPLEX® Red Glucose Assay (Life-Technologies) and normalized to total protein levels from hepatocytes lysed in 1% SDS as measured by the BCA assay. […]

HeLa Tet3G cells = test: Total NAD+/NADH ratio by HPLC; assay type: cell-based, human; settings: doxycycline-inducible expression
Protocol: One million HeLa Tet3G Luciferase, LbNOX or mitoLbNOX cells were seeded per a 10 cm plate in 10 ml of DMEM (DMEM (US Biological, D9800), 3.7 g/L NaHCO3, 10% dialyzed FBS (Life Technologies, 26400-044)). Twenty four hours and 1 hour before extraction, media was exchanged to 10 ml of DMEM without pyruvate (DMEM (US Biological, D9802), 15.9 mg/L phenol red, 3.7 g/L NaHCO3, 10% dialyzed FBS (Life Technologies, 26400-044)) with or without 300 ng/ml doxycycline. The media that was used 1 hour before extraction was preincubated overnight in tissue culture incubator without cells. Media was quickly aspirated, cells rinsed with 15 ml of ice-cold PBS, transferred to dry ice and 4 ml of dry ice cold solution of 80% methanol: 20% water (spiked with 5 μM Sodium L-Lactate-3,3,3-D3 and 0.2 μM Sodium [3-^13C]Pyruvate) was added and quickly spread around by tilting the plate. The whole procedure from aspiration of media to adding 80% methanol solution took about ˜15 seconds. The plate was transferred on dry ice to −80° C. freezer and incubated for 15 min. […]
Metabolites were analyzed by ion exchange chromatography using μBondapak NH2 300×3.9-mm column (Waters, WAT084040) attached to Agilent 1260 HPLC system. […] Absorbance was monitored at […] for NADH. […] Energy charge calculated ([ATP]+0.5 [ADP])/([ATP]+[ADP]+[AMP]) was usually ˜0.95.

[1] = Enzymatic assay of NAD(P)H oxidase activity, NADPH as substrate (Michaelis-Menten analysis); assay type: biochemical
Protocol: TPNOX is highly specific towards NADPH (e.g., approximately 1120 fold more reactive with NADPH than with NADH based on respective kat/KM values).
Recombinant LbNOX activity was monitored by following the decrease of the absorbance of NAD(P)H at […] using CARY® 100 spectrophotometer (Agilent, CA). A typical reaction mixture contained 2 μM FAD in 0.5 ml of the assay buffer (50 mM Na2HPO4, pH 7.5, 150 mM NaCl) and was incubated for 4 min at 37° C. before NAD(P)H (2-600 μM) and enzyme (0.08-6.8 μg) were added. Extinction coefficient (ε340=6.2 mM^−1 cm^−1) was used to calculate NAD(P)H oxidase activity. Simultaneous monitoring of oxygen consumption and NADH fluorescence was performed using a custom-built fluorimeter. In our setup the REDEYE™ oxygen patch (OceanOptics) was installed in a cuvette and the optical probe was connected to a fluorimeter. Oxygen causes quenching of the REDEYE™ patch fluorescence which allows to monitor the partial pressure of oxygen. In our experiments 0.5 ml of the assay buffer was preincubated at 28° C. before NADH (40-1500 μM) and LbNOX (0.1-2 μg) were added.

B1: LbNOX: water-forming NADH oxidase endogenous to Lactobacillus brevis; tested with C-terminal FLAG tag (protein, listed as Lactobacillus brevis)
chain: KVTVVGCTHAGTFAIKQILAEHPDAEVTVYERNDVISFLSCGIALYLGGKVADPQGLFYSSPEELQKLGANVQMNHNVLAIDPDQKTVTVEDLTNHAQTTESYDKLVMTSGSWPIVPKIPGIDSDRVKLCKNWAHAQALIEDAKEAKRITVIGAGYIGAELAEAYSTTGHDVTLIDAMARVMPKYFDADFTDVIEQDYRDHGVQLALGETVESFTDSATGLTIKTDKNSYETDLAILCIGFRPNTDLLKGKVDMAPNGAIITDDYMRSSNPDIFAAGDSAAVHYNPTHQNAYIPLATNAVRQGILVGKNLVKPTVKYMGTQSSSGLALYDRTIVSTGLTLAAAKQQGLNAEQVIVEDNYRPEFMPSTEPVLMSLVFDPDTHRILGGALMSKYDVSQSANTLSVCIQNENTIDDLAMVDMLFQPNFDRPFNYLNILAQAAQAKVAQSVNA
modifications: C-terminal FLAG tag
With B1 the gluconeogenesis from lactate (primary rat hepatocytes) was “significantly increased” and the “effect on total NAD+/NADH ratio” value (HeLa Tet3G cells) was “did not have a significant effect”.

B2: TPNOX: NADPH-specific quintuple mutant (G159A/D177A/A178R/M179S/P184R) of LbNOX (protein)
chain: B1 chain with G158A, D176A, A177R, M178S, P183R
For B2, the “kcat with NADPH” value [1] was 268 ± 4 s⁻¹ and the Km ([1]; recombinant enzyme) was 22 ± 2 µM.
